The record followed here is patent publication US20090028859A1 (published 2009).

Assay [1] deals with T1, Flt-1-Fc fusion protein (human, UniProt P17948-2 27-687, limits assumed).
T1 construct: Bought from R&D Systems; also called VEGFR-1; not shown: Fc part
Nature of the assay: direct binding ELISA on immobilized Flt-1, detection with anti-E tag antibody-HRP, A450. As to the method:
(§1) Two assays were carried out to determine the dual antigen binding capability of the diabody. First, a cross-linking assay was used to investigate whether the diabody is capable of binding both of its target antigens simultaneously. Briefly, the diabody or its parent scFv were first incubated in a 96-well Maxi-sorp microtiter plate (Nunc, Roskilde, Denmark) precoated with Flt-1-Fc fusion protein (1 μg/ml×[…] per well overnight at 4° C.) at room temperature (RT) for 1 h. The plate was washed three times with PBS containing 0.1% Tween (PBST), followed by incubation with KDR-AP fusion protein at RT for additional 1 h. The plate-bound KDR-AP was then quantified by the addition of AP substrate, p-nitrophenyl phosphate (Sigma, St. Louis, Mo.), followed by reading of the absorbance at 405 nm (Lu, D. et al., 1999). In the second, direct binding assay, various amounts of diabody or scFv were added to KDR or Flt-1 coated 96-well plates and incubated at RT for 1 h, after which the plates were washed 3 times with PBST. The plates were then incubated at RT for 1 h with 100 μl of an anti-E tag antibody-HRP conjugate (Amersham Pharmacia Biotech). The plates were washed, peroxidase substrate added, and the absorbance at 450 nm read following the procedure described previously (Lu, D. et al., 1999).
On the technique in general: An ELISA detects its analyte on a solid surface through an enzyme-linked reagent.

In assay [2] the target is T1, Flt-1-Fc fusion protein. Nature of the assay: blocking ELISA: antibody mixed with a fixed amount of Flt-1-Fc, transferred to immobilized PlGF, plate-bound Flt-1-Fc detected with anti-human Fc-HRP, A450. As to the method:
The assays followed previously described protocols (Zhu, Z. et al., 1998; Lu, D. et al., 1999). Briefly, various amounts of the diabody or scFv were mixed with a fixed amount of KDR-AP (100 ng) or Flt-1-Fc fusion protein (50 ng) and incubated at RT for 1 h. The mixture were then transferred to 96-well microtiter plates precoated with VEGF₁₆₅ (200 ng/well) or PlGF (200 ng/well) and incubated at RT for an additional 2 h, after which the plates were washed 5 times with PBS. For the KDR-AP assay, the substrate for AP was added, followed by reading of the absorbance at 405 nm to quantify the plate-bound KDR-AP. For the Flt-1-Fc assay, the plate was incubated with a mouse anti-human Fc-HRP conjugate to quantify the plate-bound Flt-1-Fc.

The target of assay [3] is T1, Flt-1-Fc fusion protein. The assay can be described thus: BIAcore SPR, Flt-1-Fc immobilized, antibody injected. The protocol:
The binding kinetics of the diabody and its parent scFv to KDR and Flt-1 were measured using a BIAcore biosensor (Pharmacia Biosensor). KDR-AP or Flt-1-Fc fusion protein was immobilized onto a sensor chip and soluble antibodies were injected at concentrations ranging from 1.5 nM to 100 nM. Sensorgrams were obtained at each concentration and were analyzed with, BIA Evaluation 2.0, a program to determine the rate constants kon and koff. The affinity constant, Kd, was calculated from the ratio of rate constants koff/kon.

Assay [4] deals with T2, KDR-alkaline phosphatase (AP) soluble fusion protein (human, UniProt P35968 20-764).
T2 construct: also called KDR-AP; soluble KDR; not shown: alkaline phosphatase (AP) fusion partner
The assay can be described thus: direct binding ELISA on immobilized KDR, detection with anti-E tag antibody-HRP, A450. The protocol:
as §1

In assay [5] the target is T1, Flt-1-Fc fusion protein. The assay can be described thus: competition ELISA: inhibition of Flt-1-Fc binding to immobilized VEGF165, reference scFv 6.12.

T1 sequence (P17948 other isoform, or with tags, fused parts or gaps limits assumed): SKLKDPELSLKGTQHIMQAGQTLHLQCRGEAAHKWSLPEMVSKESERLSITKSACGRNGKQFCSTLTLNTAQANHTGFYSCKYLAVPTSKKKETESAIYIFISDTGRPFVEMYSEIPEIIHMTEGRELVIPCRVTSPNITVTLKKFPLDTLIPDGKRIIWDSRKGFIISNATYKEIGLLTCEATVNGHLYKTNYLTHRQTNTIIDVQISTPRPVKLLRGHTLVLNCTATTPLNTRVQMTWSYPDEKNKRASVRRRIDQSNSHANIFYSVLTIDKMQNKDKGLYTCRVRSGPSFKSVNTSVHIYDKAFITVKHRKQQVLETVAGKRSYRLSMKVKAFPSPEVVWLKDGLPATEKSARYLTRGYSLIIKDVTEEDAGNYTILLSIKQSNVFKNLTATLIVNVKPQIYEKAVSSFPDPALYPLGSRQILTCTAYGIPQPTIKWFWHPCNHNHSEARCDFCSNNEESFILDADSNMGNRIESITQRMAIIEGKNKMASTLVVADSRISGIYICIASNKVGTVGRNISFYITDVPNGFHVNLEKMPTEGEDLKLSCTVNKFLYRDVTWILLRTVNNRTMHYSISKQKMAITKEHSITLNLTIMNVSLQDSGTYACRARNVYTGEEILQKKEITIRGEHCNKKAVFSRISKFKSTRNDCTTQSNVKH
T2 sequence (P35968 20-764): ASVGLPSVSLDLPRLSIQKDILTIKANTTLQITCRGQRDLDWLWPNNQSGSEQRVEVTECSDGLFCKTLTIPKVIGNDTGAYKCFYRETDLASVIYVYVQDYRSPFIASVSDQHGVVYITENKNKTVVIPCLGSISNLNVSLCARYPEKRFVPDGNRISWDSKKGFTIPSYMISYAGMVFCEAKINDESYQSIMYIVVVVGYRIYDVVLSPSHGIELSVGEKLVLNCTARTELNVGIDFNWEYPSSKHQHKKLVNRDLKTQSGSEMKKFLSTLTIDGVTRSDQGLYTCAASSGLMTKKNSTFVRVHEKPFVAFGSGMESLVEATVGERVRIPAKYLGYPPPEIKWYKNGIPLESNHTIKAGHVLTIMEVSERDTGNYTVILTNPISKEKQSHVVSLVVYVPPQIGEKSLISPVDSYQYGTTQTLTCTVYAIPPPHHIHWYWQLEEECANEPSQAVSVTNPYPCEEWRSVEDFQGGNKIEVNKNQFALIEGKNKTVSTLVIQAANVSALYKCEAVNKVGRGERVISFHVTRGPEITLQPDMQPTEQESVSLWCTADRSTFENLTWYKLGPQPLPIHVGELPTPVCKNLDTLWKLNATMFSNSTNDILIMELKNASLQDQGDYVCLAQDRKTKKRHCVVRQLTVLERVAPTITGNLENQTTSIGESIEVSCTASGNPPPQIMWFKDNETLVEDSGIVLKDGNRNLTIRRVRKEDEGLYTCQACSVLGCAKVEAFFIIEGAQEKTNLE

B1: scFv 6.12 (scFv)
scFv: QVKLQQSGAELVKPGASVKLSCTASGFNIKDTYIHWVKQSPEQGLEWIGWIDPPNDNTKYDPKFQGKATITADTSSNTAYMQLRSLTSEDTAVYYCALPPFYFDYWGHGTTVTVSSGGGGSGGGGSGGGGSDIELTQSPKFMSTSVGDRVSVTCKASQNVDTNVAWYQQKPGQSPKALIYSASYRYSGVPDRFTGSGSGTDFTLTISNVQSEDLAEYFCQQYNSFPYTFGGGTKLEIKRA
notes: expressed soluble from pCANTAB 5E and detected with anti-E tag antibody; not shown: E tag from vector pCANTAB 5E
As a reminder, the EC50 (read off the curve) is the midpoint of the concentration-response curve. In general, Kd refers to the free concentration of one partner at which half of the binding sites on the other are occupied at equilibrium, for simple one-to-one binding. A higher Kd goes with a looser complex. Usually koff stands for the first-order rate constant of dissociation. Lower therefore signals a long-lived complex. By kon is commonly meant the rate constant with which the complex forms. Take B1: the “EC50 (read off the curve)” value in the assay with Flt-1-Fc fusion protein [1] is approximately 0.6 nM. In addition, the “IC50 (read off the curve)” value with Flt-1-Fc fusion protein [2] is approximately 1 nM. In the assay with Flt-1-Fc fusion protein [3], this molecule returned a Kd of 9.8 nM, a dissociation rate constant (koff) of 0.00236 s⁻¹ and a kon of 241000 M⁻¹ s⁻¹. The binding result in assay [4] is listed as “no binding (tested: about 12 nM)”.

B2: anti-KDR x anti-Flt-1 bifunctional diabody (bispecific antibody, part only; not given: anti-KDR domains, E tag, not shown: small tags and cut ends)
chain, part 1: GGGGSQVKLQQSGAELVKPGASVKLSCTASGFNIKDTYIHWVKQSPEQGLEWIGWIDPPNDNTKYDPKFQGKATITADTSSNTAYMQLRSLTSEDTAVYYCALPPFYFDYWGHGTTVTVSS
chain, part 2: DIELTQSPKFMSTSVGDRVSVTCKASQNVDTNVAWYQQKPGQSPKALIYSASYRYSGVPDRFTGSGSGTDFTLTISNVQSEDLAEYFCQQYNSFPYTFGGGTKLEIKRAGGGGS
In the case of B2, the fold less potent than the parent scFv 6.12 with Flt-1-Fc fusion protein [5] was determined as 10 fold.

B3: scFv p1C11 (scFv)
scFv: QVKLQQSGAELVGSGASVKLSCTTSGFNIKDFYMHWVKQRPEQGLEWIGWIDPENGDSDYAPKFQGKATMTADSSSNTAYLQLSSLTSEDTAVYYCNAYYGDYEGYWGQGTTVTVSSGGGGSGGGGSGGGGSDIELTQSPAIMSASPGEKVTITCSASSSVSYMHWFQQKPGTSPKLWIYSTSNLASGVPARFSGSGSGTSYSLTISRMEAEDAATYYCQQRSSYPFTFGSGTKLEIK
notes: Mouse scFv from a phage library, VH and VL joined by (GGGGS)3, made soluble from pCANTAB 5E with a C-terminal E tag (detected with anti-E tag antibody); It is not known whether the entry includes the tag; also called anti-KDR scFv
On to B3, for which the “EC50 (read off the curve)” value in assay [4] was approximately 0.3 nM.
